# Assays:
# [1] = biological target: Aart-NFluc (six-finger zinc finger Aart) (synthetic); experiment: competition; single A to T bp substitution in finger 3 triplet; conditions: tags: N-terminal His tag, C-terminal NFluc(2-416) split luciferase fragment; hairpin
# [2] = biological target: Aart-NFluc (six-finger zinc finger Aart) (synthetic); experiment: competition; competes with E2C-1-Aart in split-luciferase assay with CFluc-E2C; IC50 only in figure; reference hairpin; conditions: tags: N-terminal His tag, C-terminal NFluc(2-416) split luciferase fragment
# [3] = biological target: Aart-NFluc (six-finger zinc finger Aart) (synthetic); experiment: with VEGF60-78-E2C hairpin-guide and 1 nM VEGF transcript; conditions: tags: N-terminal His tag, C-terminal NFluc(2-416) split luciferase fragment; hairpin with ssDNA guide tail
# [4] = biological target: CFluc-E2C (six-finger zinc finger E2C) (synthetic); experiment: with Pum2-Aart hairpin-guide and 1 nM target ssRNA or ssDNA; G to T target mutation gives background; conditions: tags: N-terminal CFluc(398-550) split luciferase fragment; hairpin with ssDNA guide tail
# CFluc-E2C (six-finger zinc finger E2C) (synthetic), sequence (chain, as listed by the source): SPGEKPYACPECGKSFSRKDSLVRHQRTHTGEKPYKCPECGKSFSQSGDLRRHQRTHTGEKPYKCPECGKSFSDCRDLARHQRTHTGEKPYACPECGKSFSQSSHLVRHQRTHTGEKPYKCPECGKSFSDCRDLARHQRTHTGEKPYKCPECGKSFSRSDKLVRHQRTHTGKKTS
# [5] = biological target: Aart-NFluc (six-finger zinc finger Aart) (synthetic); experiment: with Pum1-E2C hairpin-guide and 1 nM target ssRNA or ssDNA; G to T target mutation gives background; conditions: tags: N-terminal His tag, C-terminal NFluc(2-416) split luciferase fragment; hairpin with ssDNA guide tail
# [6] = biological target: CFluc-E2C (six-finger zinc finger E2C) (synthetic); experiment: with HER2 122-140-Aart hairpin-guide and 1 nM HER2 transcript; conditions: tags: N-terminal CFluc(398-550) split luciferase fragment; hairpin with ssDNA guide tail
# [7] = biological target: CFluc-E2C (six-finger zinc finger E2C) (synthetic); experiment: with VEGF81-99-Aart hairpin-guide and 1 nM VEGF transcript; conditions: tags: N-terminal CFluc(398-550) split luciferase fragment; hairpin with ssDNA guide tail
# [8] = biological target: Aart-NFluc (six-finger zinc finger Aart) (synthetic); experiment: with E2C-HER2 100-118 hairpin-guide and 1 nM HER2 transcript; conditions: tags: N-terminal His tag, C-terminal NFluc(2-416) split luciferase fragment; hairpin with ssDNA guide tail
# Aart-NFluc (six-finger zinc finger Aart) (synthetic), sequence (chain, as listed by the source): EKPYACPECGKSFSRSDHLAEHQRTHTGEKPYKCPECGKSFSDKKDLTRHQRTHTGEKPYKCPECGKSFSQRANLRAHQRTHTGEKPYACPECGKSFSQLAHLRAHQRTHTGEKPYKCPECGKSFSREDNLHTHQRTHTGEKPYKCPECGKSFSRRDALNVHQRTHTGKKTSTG
binder,measurement,setting,value
"GCATGTAGAGAATAACCAGGCGTCCTCGCCTGGTTATTCTCTACATGC (dsDNA) [Aart competitor hairpin, designed ATA]",binding signal,[1],20 fold reduced vs designed hairpin
"GCATGTAGGGAAAAGCCCGGCGTCCTCGCCGGGCTTTTCCCTACATGC (dsDNA) [Aart competitor hairpin, consensus]",binding result,[2],binds
"GCATGTAGGGAATAGCCCGGCGTCCTCGCCGGGCTATTCCCTACATGC (dsDNA) [Aart competitor hairpin, consensus ATA]",binding signal,[1],60 fold reduced vs consensus hairpin
VEGF81-99-Aart hairpin-guide (dsDNA) DNA: GATCTCATCAGGGTACTCCAAAACTCCGGGCTTTTCCCTACATGCTCCTGCATGTAGGGAAAAGCCCGGAG,activity,[3],39 fold luminescence
Pum1-E2C hairpin-guide (dsDNA) DNA: GAGGGGCCGGAGCCGCAGTGCGTCCTCGCACTGCGGCTCCGGCCCCTCAAAACTATATACACCATG,activity,[4],4.5 fold luminescence over background
Pum2-Aart hairpin-guide (dsDNA) DNA: GCCGCTATATCAAAAAACTCCGGGCTTTTCCCTACATGCTCCTGCATGTAGGGAAAAGCCCGGAG,activity,[5],4.5 fold luminescence over background
E2C-HER2 100-118 hairpin-guide (dsDNA) DNA: GAGGGGCCGGAGCCGCAGTGCGTCCTCGCACTGCGGCTCCGGCCCCTCAAAACGGCACAGACAGTGCGCGT,activity,[6],4.3 fold luminescence over hairpin-guides alone
VEGF60-78-E2C hairpin-guide (dsDNA) DNA: GAGGGGCCGGAGCCGCAGTGCGTCCTCGCACTGCGGCTCCGGCCCCTCAAAAGAAGATGTCCACCAGGGTC,activity,[7],39 fold luminescence
HER2 122-140-Aart hairpin-guide (dsDNA) DNA: CCCTTGCAGCGGGCACAGCAAAACTCCGGGCTTTTCCCTACATGCTCCTGCATGTAGGGAAAAGCCCGGAG,activity,[8],4.3 fold luminescence over hairpin-guides alone
